From patent US20230270824A1, “INTERFERON-BASED CANCER TREATMENT METHOD AND PHARMACEUTICAL COMPOSITION” (XIAMEN AMOYTOP BIOTECH CO., LTD., priority 2019, published 2023)
Several values for one entry are separate records, joined by “and”; a condition that tells them apart may be missing. Identical values can stand only once.

Key:
[1] = test system: transplanted lung cancer LLC; experiment: Interferon combined with gemcitabine, transplanted lung cancer LLC in mice (Example 6); type: in vivo, C57BL/6N mice
Description: (§1) In this example, a comparative study on the efficacy of PEG-mIFN-α4 intermittent administration (once every 48 hours for four consecutive times, then drug withdrawal for 192 hours; for 5 rounds), PEG-mIFN-α4 continuous administration (once every 48 hours for 32 consecutive times), PEG-mIFN-α4 in combination with gemcitabine (PEG-mIFN-α4: once every 48 hours for four consecutive times, then drug withdrawal for 360 hours, 4 rounds; gemcitabine: once a week) on transplanted liver cancer LLC in mice was performed.
(§2) On the day when the tumor was inoculated, they were randomly divided into PEG-mIFN-α4 continuous administration group (N=26, female 13, male 13), PEG-mIFN-α4 intermittent administration group (N=26, female 13, male 13), the normal saline control group (N=26, female 13, male 13), the gemcitabine only group (N=26, female 13, male 13), and PEG-mIFN-α4 combined with gemcitabine group (N=26, female 13, male 13).
For the PEG-mIFN-α4 intermittent administration group, PEG-mIFN-α4 was administered once every 48 hours for 4 consecutive times, then drug withdrawal for 192 hours; for […]. For the PEG-mIFN-α4 continuous administration group, PEG-mIFN-α4 was administered once every 48 hours. For the PEG-mIFN-α4 combined with gemcitabine group, PEG-mIFN-α4 was administered once every 48 hours for 4 consecutive times, then drug withdrawal for 360 hours; for 4 rounds; and gemcitabine was administered once a week. For the gemcitabine only group, gemcitabine was administered once a week. For the saline control group, equal volume of saline was administered. Gemcitabine was injected intraperitoneally, 60 mg/kg.
(§3) SAS9.4 software was used for comparing the difference in mortality, and the statistical tests were all two-sided tests.

[2] = test system: mouse fibroblast/encephalomyocarditis virus (L929/EMCV); experiment: Specific activity by mouse fibroblast/encephalomyocarditis virus (L929/EMCV) cytopathic inhibition method; type: cell-based; conditions: stock solution; commercial mIFN-α4 (R&D) as the standard
Description: (§4) The bacterial endotoxin content of the deglycosylated mIFN-α4 stock solution was determined by the Limulus reagent method as lower than 60 EU/mg. specific activity was determined as 5.4×10^8 U/mg by using the commercial mIFN-α4 (R&D, catalog number 12115-1) as the standard, and by using the mouse fibroblast/encephalomyocarditis virus (L929/EMCV) cytopathic inhibition method.
as §4, with “PEG-mIFN-α4” for “deglycosylated mIFN-α4”, “15” for “60”, “Specific” for “specific”, “6.1×10^6” for “5.4×10^8”

[3] = test system: transplanted breast cancer 4T1; experiment: Interferon combined with gemcitabine, transplanted breast cancer 4T1 in mice (Example 9); type: in vivo, BALB/c mice; conditions: 53 days after tumor inoculation
Description: as §1, with “3” for “four”, “144” for “192”, “25” for “32”, “240” for “360”, “breast” for “liver”, “4T1” for “LLC”
as §2, with “(N=24,” for “(N=26,”, “12,” for “13,”, “12),” for “13),”, “12).” for “13).”
For the PEG-mIFN-α4 intermittent administration group, PEG-mIFN-α4 was administered once every 48 hours for 3 consecutive times, then drug withdrawal for 144 hours; for 5 rounds. For the PEG-mIFN-α4 continuous administration group, PEG-mIFN-α4 was administered once every 48 hours. For the PEG-mIFN-α4 combined with gemcitabine group, PEG-mIFN-α4 was administered once every 48 hours for 3 consecutive times, then drug withdrawal for 240 hours; for 4 rounds; and gemcitabine was administered once a week. For the gemcitabine only group, gemcitabine was administered once a week. For the saline control group, equal volume of saline was administered. Gemcitabine was injected intraperitoneally, 60 mg/kg.
as §3

[4] = test system: transplanted colorectal cancer CT26; experiment: Interferon combined with gemcitabine, transplanted colorectal cancer CT26 in mice (Example 7); type: in vivo, BALB/c mice; conditions: 110 days observation
Description: In this example, a comparative study on the efficacy of PEG-mIFN-α4 intermittent administration (once every 48 hours for three consecutive times, then drug withdrawal for 144 hours; for 11 rounds), PEG-mIFN-α4 continuous administration (once every 48 hours for 55 consecutive times), PEG-mIFN-α4 in combination with gemcitabine (PEG-mIFN-α4: once every 48 hours for three consecutive times, then drug withdrawal for 240 hours, 8 rounds; gemcitabine: once a week) on transplanted colorectal cancer CT26 in mice was performed.
The anticancer agent is Gemcitabine (Jiangsu HAOSEN Pharmaceutical).
as §2, with “(N=24,” for “(N=26,”, “12,” for “13,”, “12),” for “13),”, “12).” for “13).”
Gemcitabine was injected intraperitoneally, 60 mg/kg. […] For the PEG-mIFN-α4 intermittent administration group, PEG-mIFN-α4 was administered once every 48 hours for three consecutive times, then drug withdrawal for 144 hours; for 11 rounds. For the PEG-mIFN-α4 continuous administration group, PEG-mIFN-α4 was administered once every 48 hours. For the PEG-mIFN-α4 combined with gemcitabine group, PEG-mIFN-α4 was administered once every 48 hours for three consecutive times, then drug withdrawal for 240 hours; for 8 rounds; and gemcitabine was administered once a week. For the gemcitabine only group, gemcitabine was administered once a week. For the saline control group, equal volume of saline was administered.
Survival analysis was performed for all groups to compare the differences between groups.

B1: PEG-mIFN-α4: deglycosylated recombinant mouse interferon α4 modified with 40 kD Y-type polyethylene glycol (YPEG-NHS); SEQ ID NO: 6 (protein)
chain: CDLPHTYNLGNKRALTVLEEMRRLPPLSCLKDRKDFGFPLEKVDNQQIQKAQAILVLRDLTQQILNLFTSKDLSATWNATLLDSFCNDLHQQLNDLKACVMQEPPLTQEDSLLAVRTYFHRITVYLRKKKHSLCAWEVIRAEVWRALSSSTNLLARLSEEKE
modifications: 40 kD Y-type PEG; deglycosylated; amino acid sequence of peginterferon murine 4
- Mortality ([1]; continuous administration (1 μg/mouse s.c. once every 48 hours), 45 days after tumor inoculation): 100%
- Mortality ([1]; continuous administration (once every 48 hours), Day 64 post tumor inoculation): 100%
- Mortality ([1]; intermittent administration (every 48 h x4, withdrawal 192 h), 45 days after tumor inoculation): 34.6%
- Mortality ([1]; intermittent administration (every 48 h x4, withdrawal 192 h), Day 64 post tumor inoculation): 84.6%
- Specific activity [2]: 6.1×10^6 U/mg
- Mortality ([3]; continuous administration (once every 48 hours, 25 times)): 87.5% and 58.3%
- Mortality ([3]; intermittent administration (every 48 h x3, withdrawal 144 h, 5 rounds)): 87.5%
- Mean survival period (days post tumor inoculation) ([4]; continuous administration: once every 48 hours, 55 times): 53.5 days
- Mean survival period (days post tumor inoculation) ([4]; intermittent administration: 1 μg/mouse every 48 h x3, withdrawal 144 h, 11 rounds): 89.0 days
